In PMC3272785:

Substrate: Nc1nc(=O)[nH]cc1F
Assay: steady-state kinetics
Format: biochemical, Saccharomyces cerevisiae
Conditions: Zn2+

B1: yeast cytosine deaminase (yCD) (Saccharomyces cerevisiae S288C) (protein)
chain: MASKWDQKGMDIAYEEAALGYKEGGVPIGGCLINNKDGSVLGRGHNMRFQKGSATLHGEISTLENCGRLEGKVYKDTTLYTTLSPCDMCTGAIIMYGIPRCVVGENVNFKSKGEKYLQTRGHEVVVVDDERCKKIMKQFIDERPQDWFEDIGE
With B1 the Km was 160 ± 10 µM, the kcat was 17 ± 0.4 s⁻¹ and the kcat/Km was 106000 M⁻¹ s⁻¹.
